Laboratory results taken from CN112538116A (DONGDA BIOTECHNOLOGY SUZHOU CO LTD, dated 2021).

Columns and labels:
[1] = molecular target: T1, 人4-1BB on Jurkat-4-1BB细胞 (human, UniProt Q07011 24-255); experiment: FACS on Jurkat-4-1BB cells
T1 construct: whole, on cells; the reporter line Jurkat-4-1BB-NFkB-luc carries the same receptor; also called Jurkat-4-1BB-NFkB-luc; CD137

[2] = molecular target: T2, 4-1BB-ECD-hFc (human, UniProt Q07011 24-186); experiment: ELISA, 4-1BB-ECD-hFc coated
T2 construct: extracellular domain; Coated on the ELISA plate; also called 4-1BB-hFc; 4-1BB-hFc蛋白; not shown: human Fc (hFc)

[3] = molecular target: T2, 4-1BB-ECD-hFc; experiment: ELISA, method as in Example 1

T1 sequence (Q07011 24-255): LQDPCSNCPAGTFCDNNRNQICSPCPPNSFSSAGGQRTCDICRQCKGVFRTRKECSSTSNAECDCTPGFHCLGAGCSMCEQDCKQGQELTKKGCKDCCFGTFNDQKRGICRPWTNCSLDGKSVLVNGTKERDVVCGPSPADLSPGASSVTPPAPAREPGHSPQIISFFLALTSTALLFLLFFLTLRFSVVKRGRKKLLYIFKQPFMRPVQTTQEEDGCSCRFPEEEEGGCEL

| binding result [1] | binding result [2] | binding result [3] | Binder |
| --- | --- | --- | --- |
| binds | binds |  | 抗人4-1BB杂交瘤抗体2F10 (antibody, V domains shown, Mouse hybridoma antibody purified on Protein A) VH: QVQLQQSGAALVKPGASVKLSCTASGFNIEDTYLNWVKQRPEQGLEWIGKIYPANGDTKYDPKFQGKATITAETPSNKAYLQLSSLTSEDTAVYYCTRGYGSNFFDCWGQGTSLTVSS VL: DIVLTQSPASLAVALGQRATISCRASESVDSYDNSFMHWYQQKVGQPPKLLIYRASNLESGLPARFSGSGSRTDFTLTINPVEADDVATYYCQQSNEDPYTFGGGTKLEII |
| binds | binds |  | 抗人4-1BB杂交瘤抗体8E9 (antibody, V domains shown, Mouse hybridoma antibody purified on Protein A) VH: QAQLQQSGPELVRPGTSVKMSCKTSGYSFTGYWMHWMKQRPGQGLEWIGMIDPSNSDTRLNQKFKDKATLNVDKSSNTAYMDFSSLTSEDSAVYYCARWRYYGYDGIAYWGQGTLVTVSA VL: DIVMTQSPSSLTVTAGEKVTVSCKSSQSLLNSGNQRNYLTWYQQKPGQPPKLLIYWASTRESGVPDHFTGSGSGTDFTLTISSVQAEDLAVYYCQNDYTYPFTFGGGTKLEIK |
| binds |  | binds | 抗人4-1BB人源化抗体3A11 (antibody, V domains shown, Humanised antibody expressed in 293 cells, purified on Protein A, captured by anti-human IgG in Biacore; also called hu3A11) VH: EVQLVESGGGLVKPGGSLRLSCAASGFIFNTNAMNWVRQAPGKGLEWIARIRSKINNYATYYADSVKDRFTISRDDSKNTLYLQMNSLKTEDTAVYYCNWDEAYWGQGTLVTVSS VL: DIQMTQSPSSLSASVGDRVTITCKASDHINNWLAWYQQKPGKAPKLLIFGATSLETGVPSRFSGSASGNDYTLTISSLQPEDFATYYCQQYWSIPYTFGQGTKLEIK |
| binds | binds |  | 抗人4-1BB杂交瘤抗体3A11 (antibody, V domains shown, Mouse hybridoma antibody purified on Protein A) VH: EVQLVETGGGLVQPNGSLKLSCAASGFIFNTNAMNWVRQAPGKGLEWIARIRSKINNYATYYADSVKDRFTISRDDSQSMLYLQMNNLKTEDTGMYYCNWDEAYWGQGTLVTVSA VL: DIQMTQSSSYLSVSLGGRVTVTCKASDHINNWLAWYQQKPGNAPRLLIFGATSLETGVPSRFSGSASGNDYTLTITSLQTEDVATYYCQQYWSIPYTFGGGTKLEIK |
| binds | binds |  | 抗人4-1BB杂交瘤抗体8H8 (antibody, V domains shown, Mouse hybridoma antibody purified on Protein A) VH: QIQLVQSGPELKKPGETVKISCKASGYTFSNYGMNWVKQAPGKGLKWMGWINTHTGEPTYADEFKGRFAFSLETSVSTAYLQINNLKNEDTATYFCARVLTMVMDYWGQGTSVTVSS VL: DIVLTQSPASLAVSLGQRATISCRASEIIDGSGNSFVHWYQQKPGQPPKLLIYRTSTLESGIPARFSGSGSRTDFTLTINPVEADDVATYSCLQTVEDPWTFGGGTKLEIK |
| binds |  | binds | 抗人4-1BB人源化抗体10B2 (antibody, V domains shown, Humanised antibody expressed in 293 cells, purified on Protein A, captured by anti-human IgG in Biacore; also called hu10B2) VH: QVQLVESGGGVVQPGRSLRLSCAASGFTFSTFGLHWVRQAPGKGLEWVAYISSDSNTIYYADTMKGRFTISRDNSKNTLYLQMNSLRAEDTAVYYCTRGDPAYYGYGGRFVYALDFWGQGTLVTVSS VL: DVVVTQTPLSLSVTPGQPASISCRSSQSLTNSYGHTYLSWYLQKPGQSPQLLIYGISIRFSGVPDRFSGSGSGTDFTLKISRVEAEDVGVYYCLQGTHQPWTFGGGTKVEIK |
| binds |  | binds | 抗人4-1BB人源化抗体1A2 (antibody, V domains shown, Humanised antibody expressed in 293 cells, purified on Protein A, captured by anti-human IgG in Biacore; also called hu1A2) VH: EAQLVQSGAEVKKPGATVKISCKVSGFNIKDTYMNWVQQAPGKGLEWIGRIAPANGNTKYAPQFQDRATITADTSTDTAYMELSSLRSEDTAVYYCARSYGSNFFDYWGQGTLVTVSS VL: EIVLTQSPATLSLSPGERATLSCKSSQSVDNYDNSFMHWYQQKPGQAPRLLIYRASNLETGIPARFSGSGSRTDFTLTISSLEPEDFAVYYCQQSVENPFTFGQGTKLEIK |
| binds | binds |  | 抗人4-1BB杂交瘤抗体1A2 (antibody, V domains shown, Mouse hybridoma antibody purified on Protein A) VH: EAQLQQSGAELVKPGASVKLSCTASGFNIKDTYMNWMKQRPEQGLEWIGRIAPANGNTKYAPQFQDKATITADTSSNTANLQLSSLTSEDTAVYYCARSYGSNFFDYWGQGTALTVSS VL: EIQLTQSPASLAVSLGQRATISCKSSQSVDNYDNSFMHWYQQKPGQPPKLLIKRASNLETGVPARFSGSGSRTDFTLNIHPVEEEDTATYFCQQSVENPFTFGSGTKVELK |
| binds | binds |  | 抗人4-1BB杂交瘤抗体8A8 (antibody, V domains shown, Mouse hybridoma antibody purified on Protein A) VH: QVQLKQSGPGLVQPSQSLSITCTVSGFSLTNYGVHWVRQSPGKGLEWLGAIWSGGNTDYSAAFMSRVTINKDNSKSQVFFKMNSLRPDDTAIYYCARNPYYTNVMDYWGQGTSVTVSS VL: DIQMTQSPASLSASVGETVTITCRASGNIGNFLAWYQQKQGKSPQLLVYNGETLADGVPSRFSGSGSGTQYSLKINSLQPEDFGSYYCQHFWSTPWTFGGGTKLEIK |
| binds | binds |  | 抗人4-1BB杂交瘤抗体10B2 (antibody, V domains shown, Mouse hybridoma antibody purified on Protein A) VH: DVQLVESGGGLVQPGGSRKLSCAASGFTFSTFGLHWVRQAPEKGLEWVAYISSDSNTIYYADTMKGRFTISRDNPKNTLFLQLTSLRSEDTAVYYCTRGDPAYYGYGGRFVYALDFWGQGTSVAVSS VL: DVVVTQTPLSLPVSFGDQVSISCRSSQSLTNSYGHTYLSWYLHKPGQSPQLLIYGISIRFSGVPDRFSGSGSGTDFTLRISTVKPEDLGMYYCLQGTHQPWTFGGGTKLEIK |
| binds |  | binds | 抗人4-1BB人源化抗体8H8 (antibody, V domains shown, Humanised antibody expressed in 293 cells, purified on Protein A, captured by anti-human IgG in Biacore; also called hu8H8) VH: QIQLVQSGSELKKPGASVKVSCKASGYTFSNYGMNWVRQAPGQGLEWMGWINTHTGEPTYADEFKGRFVFSLDTSVSTAYLQISSLKAEDTAVYYCARVLTMVMDYWGQGTLVTVSS VL: DIVLTQSPDSLAVSLGERATINCRASEIIDGSGNSFVHWYQQKPGQPPKLLIYRTSTLESGVPDRFSGSGSRTDFTLTISSLQAEDVAVYYCLQTVEDPWTFGGGTKVEIK |
| binds | binds |  | 抗人4-1BB杂交瘤抗体3F10 (antibody, V domains shown, Mouse hybridoma antibody purified on Protein A) VH: QVQLQQSGAELVRPGASVKISCKAFGFTFTHHHINWVKQRPGQGLDWIGYINPYNDYSIYNQKFEGKATLTVDKSSSTAYMELSRLTSDDSAVYFCARGGLGRGYFDYWGQGTTLTVSS VL: DIVMTQSTAIMSASLGEKVTMTCRASSSVTSSYLHWYQQKSGASPKIWISSTSNLASGVPVRFSGSGSGTSYSLTISSVEAEDAATYYCQQYSGNPYTFGGGTKLEIK |
